Laboratory results: patent US20260069689A1 (Regeneron, published 2026)
Where a chain is given by its changes, count along the chain named. “And” between values parts separate entries of the source, which are not always exact repeats. Equal values may be shown once.

How the values were obtained:
[1] = target: human FcγR3a 176Val allotype receptor (human, UniProt P08637 17-254); assay: cell-based or functional assay
SARS-COV-2 RBD-MMH [2] = target: SARS-COV-2 RBD-MMH (SARS-CoV-2); assay: SPR 37C, run with dissociation at pH 5.0
SARS-COV-2 RBD-MMH [3] = target: SARS-COV-2 RBD-MMH (SARS-CoV-2); assay: SPR 37C, run with dissociation at pH 7.4
[4] = target: SARS-CoV-2 RBD.mmh (Spike amino acids Arg319-Phe541 with C-terminal myc-myc-6-Histidine tag) (SARS-CoV-2, UniProt P0DTC2 319-541)
[5] = target: T1, SARS-COV-2 RBD-MMH (SARS-COV-2 RBD extracellular domain with C-terminal myc-myc-hexahistidine tag) (SARS-CoV-2)
[6] = target: T1, SARS-COV-2 RBD-MMH (SARS-COV-2 RBD …); assay: SPR 37C, mAb captured, pH 7.4 vs pH 6.0
[7] = target: SARS-COV-2 RBD extracellular domain expressed with a C-terminal myc-myc-hexahistidine tag (SARS-CoV-2); assay: SPR (Biacore), mAb captured by anti-human Fc, RBD-mmH in solution, 25 C

B1: mAb14259 (antibody)
heavy: not shown
light: DIVMTQSPLSLPVTPGEPASISCRSSQTLLHSNGYNYLDWYLQKPGQSPQLLIHLGSNRASGVPDRFSGSGSVTDFTLKISRVEAEDVGVYYCMQALQTPYTFGQGTKLEIKRTVAAPSVFIFPPSDEQLKSGTASVVCLLNNFYPREAKVQWKVDNALQSGNSQESVTEQDSKDSTYSLSSTLTLSKADYEKHKVYACEVTHQGLSSPVTKSFNRGEC
[1]
  EC50 (M), Jurkat/CD20/spike: 3.94e-10 M
  Fold induction, Jurkat CD20: 1 fold
  Fold induction, Jurkat/CD20/spike: 8.7 fold

B2: mAb14291 (antibody)
heavy: not shown
light: B1 light with T28S, L38I, D39N, I53M, H54Y, V73G, F76S, V88A, A96T, L97R
[1]
  EC50 (M), Jurkat/CD20/spike: 3.02e-10 M
  Fold induction, Jurkat CD20: 1.1 fold
  Fold induction, Jurkat/CD20/spike: 9.7 fold

B3: mAb14285 (antibody)
heavy: not shown
light: QSALTQPASVSGSPGQSITISCTGTSSDVESYNLVSWYQQHPGKAPKLMIYEGSKRPSGVSNRFSGSKSGNTASLTISGLQAEDEADYYCSSYAGSSTWVFGGGTKLTVLGQPKAAPSVTLFPPSSEELQANKATLVCLISDFYPGAVTVAWKADSSPVKAGVETTTPSKQSNNKYAASSYLSLTPEQWKSHRSYSCQVTHEGSTVEKTVAPTECS
SARS-COV-2 RBD-MMH [2]
  RBD.mmh Bound at pH 7.4 (RU): 51.5 RU
  koff: 0.0025 s⁻¹
  t½: 4.6 min
[1]
  EC50 (M), Jurkat/CD20/spike: 2.43e-10 M
  Fold induction, Jurkat CD20: 1.1 fold
  Fold induction, Jurkat/CD20/spike: 11 fold
SARS-COV-2 RBD-MMH [3]
  RBD.mmh Bound at pH 7.4 (RU): 64.2 RU
  koff: 0.0258 s⁻¹

B4: mAb14287 (antibody)
heavy: not shown
light: B3 light with E30G, G53V, S97R, T98R, W99E
[1]
  EC50 (M), Jurkat/CD20/spike: 1.23e-09 M
  Fold induction, Jurkat CD20: 1 fold
  Fold induction, Jurkat/CD20/spike: 6.2 fold

B5: mAb14230 (antibody, V domains shown)
VH: EVQLVESGGGLIQPGRSLRLSCAASGFTFDDYAMHWVRQAPGKGLEWVSGISWNSVSIDYADSVKGRFTISRDNAKNSLYLQMTSLTVEDTALYYCAKAFGYETLTGSDYFAYWGPGTLVTVSS
VL: EIVLTQSPGTLSLSPGERATLSCRASQTVISTYLAWYQQKPGQSPRLLIYGASSRATGIPDRFSGSGSGTDFTLTISRLEPEDFAVYYCQQYGSSPQLTFGGGTKVEIKR
[4]
  IC50: 9970 pM
[5]
  koff: 0.00797 s⁻¹
  t½ at pH 6.0: 1.4 min
  t½ at pH 7.4: 1.5 min
[6]
  t½ Ratio of pH 7.4 to pH 6.0: 1.1

B6: mAb14295 (antibody)
heavy: not shown
light: DIQMTQSPSSLSASVGDRVTITCRASQSINTYLNWYQQKPGKAPNLLIDGASSLQSGVPSRFSGSGSGTDFILTISSLRPEDFATYYCQQSYSIPLTFGGGTRVEIKRTVAAPSVFIFPPSDEQLKSGTASVVCLLNNFYPREAKVQWKVDNALQSGNSQESVTEQDSKDSTYSLSSTLTLSKADYEKHKVYACEVTHQGLSSPVTKSFNRGEC
[1]
  EC50 (M), Jurkat/CD20/spike: 1.93e-10 M
  Fold induction, Jurkat CD20: 1 fold
  Fold induction, Jurkat/CD20/spike: 11.5 fold

B7: mAb14255 (antibody, V domains shown)
VH: QVQLQESGPGLVKPSETLSLTCTVSGGSISGYYWSWIRQPPGKGLDWIGYIYYRGNTNYNPSLKSRVTISVDTSNNQFSLKLSSVTAADTAVYYCARYGEGYGDASGYHFDYWGQGTLVTVSS
VL: QSALTQPASVSGSPGQSITISCTGTSSDVGSYNLVSWYQQHPGKAPKLMIYEDSKRPSGVANPFSGSKSGNTASLTISGLQAEDEADYYCSSYAGSSTWVFGGGTKLTVLG
[7]
  Kd: 2840 pM
  koff: 0.00499 s⁻¹
  kon: 1.75e+06 M⁻¹ s⁻¹
  t½: 2.3 min

B8: mAb14233 (antibody)
heavy: not shown
light: SYELTQPPSVSVSPGQTARITCSGDVLAKLYAYWYQHKPGQAPVLVIYKDSERPSGIPERFSGSSSGTTVTLTISGVQAEDEADYYCQSADSSGSLWVFGGGTKLTVLGQPKAAPSVTLFPPSSEELQANKATLVCLISDFYPGAVTVAWKADSSPVKAGVETTTPSKQSNNKYAASSYLSLTPEQWKSHRSYSCQVTHEGSTVEKTVAPTECS
[1]
  EC50 (M), Jurkat/CD20/spike: 2.8e-10 M
  Fold induction, Jurkat CD20: 1.1 fold
  Fold induction, Jurkat/CD20/spike: 11 fold

B9: mAb14314 (antibody)
heavy: not shown
light: QSVLTQPPSVSAAPGQKVTISCSGSISNIGNNYVSWYQQLPGTAPKLLIYDNDKRPSGIPDRFSGSRSGTSATLGITGLQTGDEADYYCGTWDSSLTAYVFGTGTKVTVLGQPKAAPSVTLFPPSSEELQANKATLVCLISDFYPGAVTVAWKADSSPVKAGVETTTPSKQSNNKYAASSYLSLTPEQWKSHRSYSCQVTHEGSTVEKTVAPTECS
[1]
  Fold induction, Jurkat CD20: 1.1 fold
  Fold induction, Jurkat/CD20/spike: 3.9 fold

B10: mAb14232 (antibody, V domains shown)
VH: QITLKESGPTLVKPTQTLTLTCTFSGFSLSASGVGVGWIRQPPGKALEWLALIYWDDDKRYSPSLKSRLTITKDTSKNQVVLTMTNMDPVDTATYYCAQHKVATIFDYWGQGTLVTVSS
VL: QSALTQPPSASGSPGQSVTISCTATSSDVGNYNYVSWYQQHPGKAPKLMIYEVTKRPSGVPDRFSGSKSGNTASLTVSGLQAEDEADYYCSSYAGSWGVFGGGTKLTVLG
[4]
  IC50: 18000 pM
[5]
  koff: 0.0124 s⁻¹
  t½ at pH 6.0: 0.9 min
  t½ at pH 7.4: 0.4 min
[6]
  t½ Ratio of pH 7.4 to pH 6.0: 0.4

B11: mAb13458 (antibody, V domains shown)
VH: EVQLVESGGGLVQPGRSLRLSCAASGFTFDDYAMHWVRQAPGKGLEWVSGISWNSGSIGYADSVKGRFTISRDNAKNSLYLQMNSLRAEDTALYYCAKDIGITTPYWGQGTLVTVSS
VL: AIQMTQSPSSLSASVGDRVTITCRASQDIRNDLGWYQQKPGKAPKLLIYSASSLQTGVPSRFSGSGSGTDFTLTISSLHPEDFATYYCLQDYWYTWTFGQGTKVEIKR
[4]
  IC50: 873 pM
[5]
  koff: 0.00199 s⁻¹
  t½ at pH 6.0: 5.8 min
  t½ at pH 7.4: 7.2 min
[6]
  t½ Ratio of pH 7.4 to pH 6.0: 1.2

B12: mAb13459 (antibody, V domains shown)
VH: B11 VH
VL: B11 VL with W93N, T95V
[4]
  IC50: 4430 pM
[5]
  koff: 0.00229 s⁻¹ and 0.00239 s⁻¹
  t½ at pH 6.0: 4.8 min
  t½ at pH 7.4: 5.1 min
[6]
  t½ Ratio of pH 7.4 to pH 6.0: 1.1

B13: mAb14232 (antibody)
heavy: not shown
light: QSALTQPPSASGSPGQSVTISCTATSSDVGNYNYVSWYQQHPGKAPKLMIYEVTKRPSGVPDRFSGSKSGNTASLTVSGLQAEDEADYYCSSYAGSWGVFGGGTKLTVLGQPKAAPSVTLFPPSSEELQANKATLVCLISDFYPGAVTVAWKADSSPVKAGVETTTPSKQSNNKYAASSYLSLTPEQWKSHRSYSCQVTHEGSTVEKTVAPTECS
SARS-COV-2 RBD-MMH [2]
  RBD.mmh Bound at pH 7.4 (RU): 10.1 RU
  koff: 0.000656 s⁻¹
  t½: 17.6 min
[1]
  EC50 (M), Jurkat/CD20/spike: 1.31e-10 M
  Fold induction, Jurkat CD20: 1.2 fold
  Fold induction, Jurkat/CD20/spike: 10.8 fold
SARS-COV-2 RBD-MMH [3]
  RBD.mmh Bound at pH 7.4 (RU): 8.2 RU
  koff: 0.0311 s⁻¹

B14: mAb14290 (antibody)
heavy: not shown
light: EIVLTQSPGTLSLSPGERATLSCRASQSVNNNYLAWYQQKPGQTPRLLIYGASSRATGIPDRFSGSGSGTDFTLTITRLEPEDFAVYHCQQYGRSPTTFGQGTRLEIKRTVAAPSVFIFPPSDEQLKSGTASVVCLLNNFYPREAKVQWKVDNALQSGNSQESVTEQDSKDSTYSLSSTLTLSKADYEKHKVYACEVTHQGLSSPVTKSFNRGEC
[1]
  EC50 (M), Jurkat/CD20/spike: 3.42e-09 M
  Fold induction, Jurkat CD20: 1 fold
  Fold induction, Jurkat/CD20/spike: 9.5 fold

B15: mAb14288 (antibody)
heavy: not shown
light: QSVLTQPPSVSAAPGQKVTISCSGSSSNIGNNYVSWYQQLPGTAPKLLIYENNKRPSGIPDRFSGSKSGTSATLGITGLQTGDEADYYCGTWDSSLSAGQGVFGGGTKLTVLGQPKAAPSVTLFPPSSEELQANKATLVCLISDFYPGAVTVAWKADSSPVKAGVETTTPSKQSNNKYAASSYLSLTPEQWKSHRSYSCQVTHEGSTVEKTVAPTECS
[1]
  EC50 (M), Jurkat/CD20/spike: 5.1e-10 M
  Fold induction, Jurkat CD20: 1 fold
  Fold induction, Jurkat/CD20/spike: 6.7 fold
